{
  "source": "patent US20130280279A1",
  "about": "“PHARMACEUTICAL COMPOSITION OF A COMPLEX OF AN ANTI-DIG ANTIBODY AND DIGOXIGENIN THAT IS CONJUGATED TO A PEPTIDE” (HOFFMANN-LA ROCHE INC., priority 2011, published 2013)",
  "target": "human NPY2 receptor on HEK293/hNPY2R cells (human) (UniProt P49146)",
  "experiment": "cell-based or functional assay",
  "data": [
    {"substance": "PYY(3-36) (peptide)", "values": [
      {"measurement": "IC50 value of the cAMP assay (inhibition of Forskolin stimulated cAMP accumulation in HEK293/hNPY2R cells)", "value": 0.012, "unit": "nM"}
    ]}
  ]
}
